Measurements from patent US7778779.

Target: T1, 19-residue peptide comprising amino acids 788-806 of human HIF-1α, Q16665
T1 chain: DESGLPQLTSYDCEVNAPI

B1: FIH (Factor Inhibiting HIF), human (protein)
chain: MAATAAEAVASGSGEPREEAGALGPAWDESQLRSYSFPTRPIPRLSQSDPRAEELIENEEPVVLTDTNLVYPALKWDLEYLQENIGNGDFSVYSASTHKFLYYDEKKMANFQNFKPRSNREEMKFHEFVEKLQDIQQRGGEERLYLQQTLNDTVGRKIVMDFLGFNWNWINKQQGKRGWGQLTSNLLLIGMEGNVTPAHYDEQQNFFAQIKGYKRCILFPPDQFECLYPYPVHHPCDRQSQVDFDNPDYERFPNFQNVVGYETVVGPGDVLYIPMYWWHHIESLLNGGITITVNFWYKGAPTPKRIEYPLKAHQKVAIMRNIEKMLGEALGNPQEVGPLLNTMIKGRYN
- hydroxylation of the peptide (mass spectrometry of HPLC purified material): a mass difference of +8Da of the doubly charged ions, corresponding to +16Da in the peptide (oxygen)
